Earlier results as cited in PMC6484326.

Biological target: GPIIb-IIIa (Homo sapiens) (UniProt P08514)

- Kd: 100 nM
Substance: fibrinogen (from UniProt P02671)
